B1: Kel2-DBD (natural protein, S. cerevisiae, UniProt P50090 1-882, looked up)
chain: MVPFKLTNKVPTDTGPSLISAQSVPRPIVFMDNRNNTRIVTPTLPPNQHRGISGASTALPWSPESKNTGKYIWNRVKLKNSPFPRYRHSSSFIVTNDNRIFVTGGLHDQSVYGDVWQIAANADGTSFTSKRIDIDQNTPPPRVGHASTICGNAYVVFGGDTHKLNKNGLLDDDLYLFNINSYKWTIPQPIGRRPLGRYGHKISIIASNPMQTKLYLFGGQVDETYFNDLVVFDLSSFRRPNSHWEFLEPVGDLPPPLTNHTMVAYDNKLWVFGGETPKTISNDTYRYDPAQSEWSKVKTTGEKPPPIQEHASVVYKHLMCVLGGKDTHNAYSNDVYFLNLLSLKWYKLPRMKEGIPQERSGHSLTLMKNEKLLIMGGDKTDYASPNIHDLQTSETDQGEGTLLYTLDLSSLNELCPGIMCESLHAGESFSNSLSGGFTPSKSTESENQEIINILTPRLPDSKVLSYNDIDEGAGSYSSALDDKAFERKSDREEKKPQSSKVDSSINKESPGTGIKVSKKNFPVLRGLTVDSEEYGSSSYKDTSCQKGIPKNLFDDLNLNLQTLRLEAQQKELETARHISQLEKEVQRLMVIKEASKDSNFQTARLKNLEIQKTFLESRINDLKNLLMVKLSQASKLCDQITIQNNGLKTCSEHVTIKRDIIDLENKCDVLKRQNEILVNNMQKITPELHTYLNESSCYLGKLLKSYPTSARPPSSEKDNQIYEKDSLNKIEKVINEMHETVRAKEKLHLETQKLNDERDSLRANLLDNNNKLDALRKLSDGSSKSMDLTKKAIHLSQSELEKYRKNNDDLQKEIDRIKTEQAEQDDKQEQRGAITHGNFDAFHRMKINNLKAELYMSKENRDSLKDELLALKKKLYTLEQKK

What was measured:
two-hybrid = biological target: the molecule itself; assay: two-hybrid
Kel2-DBD = biological target: B1; assay: two-hybrid

B1
interaction relative to that of Kel1p-AD with Kel2-DBD (two-hybrid): ~10%

B2: Kel1-AD (natural protein, S. cerevisiae, UniProt P38853 1-1164, looked up)
chain: MAGFSFAKKFTHKKHGKTPSDASISDQSREASLSTPPNEKFFTKQETPQKGRQFSQGYHSNVNKTSSPPMFARKQVSESRIQPSAVPPQQRNVSGPSTTLHKQLSKQREYTVWNRIKLQNSPFPRYRHVASAYVTDKNQIYVIGGLHDQSVYGDTWILTAFDNATRFSTTTIDISEATPPPRVGHAAVLCGNAFVVFGGDTHKVNKEGLMDDDIYLLNINSYKWTVPAPVGPRPLGRYGHKISIIATTQMKTKLYVFGGQFDDTYFNDLAVYDLSSFRRPDSHWEFLKPRTFTPPPITNFTMISYDSKLWVFGGDTLQGLVNDVFMYDPAINDWFIIDTTGEKPPPVQEHATVVYNDLMCVVGGKDEHDAYLNSVYFLNLKSRKWFKLPVFTAGIPQGRSGHSLTLLKNDKILIMGGDKFDYARVEEYDLHTSDIDMQRGTIVYTLDLARIKDLCPGVMDVPTDTPTPRNGNLDLATPVTPTSHQTKNMNVPISAAPLASAPSPAPKDFSDADRLNREVHNRNVSTEHQNQSHPVNSESHLIAEPNILTPYVPSESSQTPVMKITSNKPFDTPTIQKEPDLSETMDPTVGNQRIPSSIYGDNLTPANQIKNNSPILETLPSNEIKTPQNGNIEEIKHLPDADEKIDSTTTFDQEINGDKLGTSSMSKVEEDGNVADEDDEIGVAQMASSPSKDQFKIKHYNESSELSQNNTEIDKLSEPVDITIKKSDTAGHDSANHVIDASDEKNVSPMGDVPTDTKNEEASVPINRDATTEVVDRALFEKLRSELQSLKELTHEKALEAGAHIKELETELWQLKSQKNSGTTKEIDELDSVRLQSKCEILEADNHSLEDKVNELEELVNSKFLDIENLNEVIQFQNEKIKSLELEPNYKEKLEELQIEHENLSRENERLKNESKQHNEDIINNVANYSSQLGSLISHWKENRANSSFLESSSSLISVSDENGEKTVGEPYGDQSRHHRVVINKLTNRLDDLLERSQELTISKEKLSSEYHALKMEHSSLSQDVLVKENEIKKIQNDYKESISSMDSASKALMVSQRELEKYKSLNKKLIDELDELKFKNGVCSENFENGLRSTEESSNNVKNSNSIRENQFNIKINDLKAELFITNQERDDLKSEVLELKKRLLNLENNTKQVNEDADSDLL
fold increase of β-galactosidase activity against Kel1-AD or Kel2-DBD alone (Kel2-DBD): > 100 fold

From PMC2132843 (The Journal of Cell Biology, 1998)
